Experimental data published in patent publication US20100021390A1, “Fluorescent Analogs Of The Islet Amyloid Polypeptide” (The Research Foundation of State University of New York, priority 2008, published 2010).
Residue numbers refer to the chain shown, from its start.

What was measured:
[1] = Control fluorescence of small p-cyanophenylalanine peptide in solvents and buffer; format: physicochemical
Text: In vitro assays of amyloid formation often involve solubilizing the peptide of interest in a fluorinated alcohol, typically hexafluoroisopropanol (HFIP). The fibrillization reaction is initiated by diluting the stock solution into aqueous buffer. […] A small, soluble p-cyanophenylalanine containing peptide (Gly-PheC≡N-Ala-Ala) was synthesized for the control studies. […] The fluorescence intensity was reduced by approximately 30%.

[2] = Thioflavin-T fluorescence kinetic assay of amyloid (fibril) formation by the peptides; format: physicochemical; conditions: 32 μM peptide, 20 mM Tris-HCl, 2% HFIP
Text: (§1) Wild-type IAPP, IAPP-Y37FC≡N and a G-FCN-A-A tetrapeptide were synthesized and the disulfide bond in IAPP was formed using dimethyl sulfoxide (DMSO) based oxidation as described in Abedini et al., Analytical Biochemistry 351, 181-186 (2006) incorporated herein by reference. The synthesis of peptides is well known in the art. Synthesizers such as the Applied Biosystems 433A are commercially available with ample instructions for use and are generally accessible to practitioners in the art. Fmoc-4-cyanoPhe was obtained from NovaBiochem. Peptides were purified via reverse phase HPLC and the identities confirmed by MALDI mass spectroscopy. Thioflavin-T fluorescence experiments were performed with a Jobin Yvon Horiba fluorescence spectrophotometer or with an Applied Phototechnology fluorescence spectrophotometer. P-cyanoPhe fluorescence was excited at 240 nm and detected at 296 nm with instrument slit widths of 10 nm on an Applied Photon Technologies fluorimeter. […]
(§2) Fibrillization reactions were initiated by diluting the stock 50-fold into buffered (20 mM Tris-HCl, pH 7.4) aqueous solution. […] The spectrum is the average of three repeats in a 0.1 cm quartz cuvette and recorded over a range of 190-250 nm, at 1 nm intervals, with an averaging time of three seconds per scan. […]

[3] = target: T1, hIAPP-Y37FC≡N (Homo sapiens, UniProt P10997); assay: p-Cyanophenylalanine fluorescence-detected kinetics of hIAPP-Y37FC≡N amyloid formation in presence and absence of rifampicin; format: biochemical; conditions: no rifampicin, 32 μM peptide
T1 construct: hIAPP is 37 residues in length, contains a disulfide bond linking residues 2 and 7 and has an amidated C-terminus; made in house; host or cells: chemical synthesis (Fmoc solid phase; Fmoc-4-cyanoPhe from NovaBiochem)
T1 sequence (P10997 with tags, fused parts or gaps): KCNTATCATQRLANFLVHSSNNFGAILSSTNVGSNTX
Description: Thioflavin-T Fluorescence. All fluorescence experiments were performed with a Jobin Yvon Horiba fluorescence spectrophotometer or with an Applied Phototechnology Fluorescence Spectrophotometer. An excitation wavelength of 450 nm and emission wavelength of 485 nm was used for the thioflavin-T studies. The excitation and emission slits were set at 5 nm. A 1.0 cm cuvette was used and each point was averaged for 1 minute. All solutions for these studies were prepared by diluting filtered stock solution (0.45 μm filter) into a Tris-HCl buffer (pH 7.4) and thioflavin-T solution immediately before the measurement. The final concentration was 32 μM peptide and 25 μM thioflavin-T with or without rifampicin in 2% HFIP for all experiments. The final concentration of ascorbic acid used in antioxidant experiments was 83 μM. All solutions were stirred during the fluorescence experiments. P-cyanophenylalanine fluorescence was excited at 240 nm and detected at 296 nm, with both excitation and emission slits of 10 nm.

[4] = p-Cyanophenylalanine fluorescence kinetic assay of amyloid formation by the peptides; format: physicochemical; conditions: 32 μM peptide, 20 mM Tris-HCl, 2% HFIP
Text: as §1, §2

[5] = target: the molecule itself; assay: cell-based or functional assay

Gly-PheC≡N-Ala-Ala
reduction of fluorescence intensity ([1]; 20 mM Tris-HCl): approximately 30% | fluorescence intensity in water vs 2% HFIP ([1]; water, 2% HFIP, very similar in 100% HFIP): the same

KCNTATCATQRLANFLVHSSNNFGAILSSTNVGSNTFC≡N (HELM PEPTIDE1{K.C.N.T.A.T.C.A.T.Q.R.L.A.N.F.L.V.H.S.S.N.N.F.G.A.I.L.S.S.T.N.V.G.S.N.T.[N#Cc1ccc(C[C@H](N[*:1])C(=O)[*:2])cc1].[am]}$PEPTIDE1,PEPTIDE1,2:R3-7:R3$$$V2.0; N-terminus assumed; SMILES CC[C@H](C)[C@H](NC(=O)[C@H](C)NC(=O)CNC(=O)[C@H](Cc1ccccc1)NC(=O)[C@H](CC(N)=O)NC(=O)[C@H](CC(N)=O)NC(=O)[C@H](CO)NC(=O)[C@H](CO)NC(=O)[C@H](Cc1c[nH]cn1)NC(=O)[C@@H](NC(=O)[C@H](CC(C)C)NC(=O)[C@H](Cc1ccccc1)NC(=O)[C@H](CC(N)=O)NC(=O)[C@H](C)NC(=O)[C@H](CC(C)C)NC(=O)[C@H](CCCNC(=N)N)NC(=O)[C@H](CCC(N)=O)NC(=O)[C@@H](NC(=O)[C@H](C)NC(=O)[C@@H]1CSSC[C@H](NC(=O)[C@@H](N)CCCCN)C(=O)N[C@@H](CC(N)=O)C(=O)N[C@@H]([C@@H](C)O)C(=O)N[C@@H](C)C(=O)N[C@@H]([C@@H](C)O)C(=O)N1)[C@@H](C)O)C(C)C)C(=O)N[C@@H](CC(C)C)C(=O)N[C@@H](CO)C(=O)N[C@@H](CO)C(=O)N[C@H](C(=O)N[C@@H](CC(N)=O)C(=O)N[C@H](C(=O)NCC(=O)N[C@@H](CO)C(=O)N[C@@H](CC(N)=O)C(=O)N[C@H](C(=O)N[C@@H](Cc1ccc(C#N)cc1)C(N)=O)[C@@H](C)O)C(C)C)[C@@H](C)O) [hIAPP-Y37FC≡N, human IAPP with Tyr-37 replaced with p-cyanoPhe]
time of the growth period (20 to 80% completion) by thioflavin-T fluorescence ([2]; pH 7.4): 247 ± 12 s | midpoint (t50) of amyloid formation as determined by thioflavin-T fluorescence ([2]; pH 7.4, 25° C.): 1,130±100 s | growth phase (10% to 80% completion) in absence of the drug [3]: 6 min | t50 time when rifampicin is absent ([3]; 2% HFIP, 25° C., pH 7.4): 18 min | time of the growth period (20 to 80% completion) by p-cyanophenylalanine fluorescence ([4]; pH 7.4): 248 ± 12 s | midpoint (t50) of amyloid formation as determined by p-cyanophenylalanine fluorescence ([4]; pH 7.4, 25° C.): 1,100±100 s

B1: hIAPP-Y37FC≡N (peptide)
peptide: T1 sequence (P10997 with tags, fused parts or gaps) with X37F
HELM: PEPTIDE1{K.C.N.T.A.T.C.A.T.Q.R.L.A.N.F.L.V.H.S.S.N.N.F.G.A.I.L.S.S.T.N.V.G.S.N.T.[N#Cc1ccc(C[C@H](N[*:1])C(=O)[*:2])cc1].[am]}$PEPTIDE1,PEPTIDE1,2:R3-7:R3$$$V2.0; N-terminus assumed
SMILES: CC[C@H](C)[C@H](NC(=O)[C@H](C)NC(=O)CNC(=O)[C@H](Cc1ccccc1)NC(=O)[C@H](CC(N)=O)NC(=O)[C@H](CC(N)=O)NC(=O)[C@H](CO)NC(=O)[C@H](CO)NC(=O)[C@H](Cc1c[nH]cn1)NC(=O)[C@@H](NC(=O)[C@H](CC(C)C)NC(=O)[C@H](Cc1ccccc1)NC(=O)[C@H](CC(N)=O)NC(=O)[C@H](C)NC(=O)[C@H](CC(C)C)NC(=O)[C@H](CCCNC(=N)N)NC(=O)[C@H](CCC(N)=O)NC(=O)[C@@H](NC(=O)[C@H](C)NC(=O)[C@@H]1CSSC[C@H](NC(=O)[C@@H](N)CCCCN)C(=O)N[C@@H](CC(N)=O)C(=O)N[C@@H]([C@@H](C)O)C(=O)N[C@@H](C)C(=O)N[C@@H]([C@@H](C)O)C(=O)N1)[C@@H](C)O)C(C)C)C(=O)N[C@@H](CC(C)C)C(=O)N[C@@H](CO)C(=O)N[C@@H](CO)C(=O)N[C@H](C(=O)N[C@@H](CC(N)=O)C(=O)N[C@H](C(=O)NCC(=O)N[C@@H](CO)C(=O)N[C@@H](CC(N)=O)C(=O)N[C@H](C(=O)N[C@@H](Cc1ccc(C#N)cc1)C(N)=O)[C@@H](C)O)C(C)C)[C@@H](C)O
midpoint (t50) of amyloid formation, p-cyanophenylalanine fluorescence [5]: 1100 s | midpoint (t50) of amyloid formation, thioflavin-T fluorescence [5]: 1130 s

B2: hIAPP-F15FC≡N (peptide)
peptide: T1 sequence (P10997 with tags, fused parts or gaps) with X37Y
HELM: PEPTIDE1{K.C.N.T.A.T.C.A.T.Q.R.L.A.N.[N#Cc1ccc(C[C@H](N[*:1])C(=O)[*:2])cc1].L.V.H.S.S.N.N.F.G.A.I.L.S.S.T.N.V.G.S.N.T.Y.[am]}$PEPTIDE1,PEPTIDE1,2:R3-7:R3$$$V2.0; N-terminus assumed
SMILES: CC[C@H](C)[C@H](NC(=O)[C@H](C)NC(=O)CNC(=O)[C@H](Cc1ccccc1)NC(=O)[C@H](CC(N)=O)NC(=O)[C@H](CC(N)=O)NC(=O)[C@H](CO)NC(=O)[C@H](CO)NC(=O)[C@H](Cc1c[nH]cn1)NC(=O)[C@@H](NC(=O)[C@H](CC(C)C)NC(=O)[C@H](Cc1ccc(C#N)cc1)NC(=O)[C@H](CC(N)=O)NC(=O)[C@H](C)NC(=O)[C@H](CC(C)C)NC(=O)[C@H](CCCNC(=N)N)NC(=O)[C@H](CCC(N)=O)NC(=O)[C@@H](NC(=O)[C@H](C)NC(=O)[C@@H]1CSSC[C@H](NC(=O)[C@@H](N)CCCCN)C(=O)N[C@@H](CC(N)=O)C(=O)N[C@@H]([C@@H](C)O)C(=O)N[C@@H](C)C(=O)N[C@@H]([C@@H](C)O)C(=O)N1)[C@@H](C)O)C(C)C)C(=O)N[C@@H](CC(C)C)C(=O)N[C@@H](CO)C(=O)N[C@@H](CO)C(=O)N[C@H](C(=O)N[C@@H](CC(N)=O)C(=O)N[C@H](C(=O)NCC(=O)N[C@@H](CO)C(=O)N[C@@H](CC(N)=O)C(=O)N[C@H](C(=O)N[C@@H](Cc1ccc(O)cc1)C(N)=O)[C@@H](C)O)C(C)C)[C@@H](C)O
midpoint (t50) of amyloid formation, p-cyanophenylalanine fluorescence [5]: 936 s | midpoint (t50) of amyloid formation, thioflavin-T fluorescence [5]: 913 s

B3: hIAPP-F23FC≡N (peptide)
peptide: T1 sequence (P10997 with tags, fused parts or gaps) with X37Y
HELM: PEPTIDE1{K.C.N.T.A.T.C.A.T.Q.R.L.A.N.F.L.V.H.S.S.N.N.[N#Cc1ccc(C[C@H](N[*:1])C(=O)[*:2])cc1].G.A.I.L.S.S.T.N.V.G.S.N.T.Y.[am]}$PEPTIDE1,PEPTIDE1,2:R3-7:R3$$$V2.0; N-terminus assumed
SMILES: CC[C@H](C)[C@H](NC(=O)[C@H](C)NC(=O)CNC(=O)[C@H](Cc1ccc(C#N)cc1)NC(=O)[C@H](CC(N)=O)NC(=O)[C@H](CC(N)=O)NC(=O)[C@H](CO)NC(=O)[C@H](CO)NC(=O)[C@H](Cc1c[nH]cn1)NC(=O)[C@@H](NC(=O)[C@H](CC(C)C)NC(=O)[C@H](Cc1ccccc1)NC(=O)[C@H](CC(N)=O)NC(=O)[C@H](C)NC(=O)[C@H](CC(C)C)NC(=O)[C@H](CCCNC(=N)N)NC(=O)[C@H](CCC(N)=O)NC(=O)[C@@H](NC(=O)[C@H](C)NC(=O)[C@@H]1CSSC[C@H](NC(=O)[C@@H](N)CCCCN)C(=O)N[C@@H](CC(N)=O)C(=O)N[C@@H]([C@@H](C)O)C(=O)N[C@@H](C)C(=O)N[C@@H]([C@@H](C)O)C(=O)N1)[C@@H](C)O)C(C)C)C(=O)N[C@@H](CC(C)C)C(=O)N[C@@H](CO)C(=O)N[C@@H](CO)C(=O)N[C@H](C(=O)N[C@@H](CC(N)=O)C(=O)N[C@H](C(=O)NCC(=O)N[C@@H](CO)C(=O)N[C@@H](CC(N)=O)C(=O)N[C@H](C(=O)N[C@@H](Cc1ccc(O)cc1)C(N)=O)[C@@H](C)O)C(C)C)[C@@H](C)O
midpoint (t50) of amyloid formation, p-cyanophenylalanine fluorescence [5]: 982 s | midpoint (t50) of amyloid formation, thioflavin-T fluorescence [5]: 972 s
